# US20240409639A1 (published 2024)
# B1: CDX-585 (bispecific antibody)
# heavy: QVQLVQSGAEVVKPGASVKISCKASGYTFTDYVMHWVRQAPGQSLEWMGVISTYHIPAVYNQKFKGKATMTVDTSTSTVYLELSSLRSEDTAVYYCAREVYGESYYFDVWGQGTTVTVSSASTKGPSVFPLAPSSKSTSGGTAALGCLVKDYFPEPVTVSWNSGALTSGVHTFPAVLQSSGLYSLSSVVTVPSSSLGTQTYICNVNHKPSNTKVDKKVEPKSCDKTHTCPPCPAPEAQGGPSVFLFPPKPKDTLYITREPEVTCVVVDVSHEDPEVKFNWYVDGVEVHNAKTKPREEQYNSTYRVVSVLTVLHQDWLNGKEYKCQVSNKALPAPIEKTISKAKGQPREPQVYTLPPSRDELTKNQVSLTCLVKGFYPSDIAVEWESNGQPENNYKTTPPVLDSDGSFFLYSKLTVDKSRWQQGNVFSCSVMHEALHNHYTQKSLSLSPGKGSSGGGGSDIQMTQSPSSLSASVGDRVTITCRASENIYSYLAWYQQKPGKAPKFLVYNADTLAEGVPSRFSGSGSGTDFTLTISSLQPEDFATYYCQHHYGTPFTFGCGTKLEIKGGGGSGGGGSGGGGSGGGGSQVQLVQSGAEVKKPGASVKVSCKASGYSFTGYTMHWVRQAPGQCLEWMGLINPYTGGTDYNQKFQGRVTMTVDRSTSTAYMELSSLRSEDTAVYYCARERPGGSQFIYYYALDYWGQGTTVTVSS
# light: DIVMTQTPLSLPVTPGEPASISCRSSQSIVHSAGNTYLEWYLQKPGQSPQLLIYKVSNRFSGVPDRFSGSGSGTDFTLKISRVEAEDVGVYYCFQGSHVPYTFGGGTKVEIKRTVAAPSVFIFPPSDEQLKSGTASVVCLLNNFYPREAKVQWKVDNALQSGNSQESVTEQDSKDSTYSLSSTLTLSKADYEKHKVYACEVTHQGLSSPVTKSFNRGEC
# Tests used:
# [1] = target: PD-1 HIS; experiment: BLI (Octet)
# [2] = target: FcγRIIIa; experiment: BLI (Octet)
# [3] = target: FcγRI; experiment: BLI (Octet)
# [4] = target: ILT4 HIS; experiment: BLI (Octet)
# [5] = target: human FcRn; experiment: BLI (Octet); pH 7.2
# [6] = target: human FcRn; experiment: BLI (Octet); pH 6.0
binder,measurement,setting,value
B1,Kd,[1],0.063 nM
same,Kd,[2],4910 nM
same,Kd,[3],1380 nM
same,Kd,[4],0.305 nM
same,Kd,[5],114 nM
same,Kd,[6],2.99 nM
